Measured values taken from patent US20030143760A1.
Each block holds one substance with its values, some of them ahead of it.

How the values were obtained:
PHF-tau (human) [1] = molecular target: PHF-tau (human) (UniProt P10636); assay: competition ELISA on PHF-tau captured by polyclonal anti-tau; biotinylated AT8, unlabeled competitor AT120 at 10 ug/ml
PHF-tau (human) [2] = molecular target: PHF-tau (human) (UniProt P10636); assay: competition ELISA on PHF-tau captured by polyclonal anti-tau; biotinylated AT8, unlabeled competitor AT8 at 10 ug/ml
PHF-tau (human) [3] = molecular target: PHF-tau (human) (UniProt P10636); assay: competition ELISA on PHF-tau captured by polyclonal anti-tau; biotinylated AT120, unlabeled competitor AT120 at 10 ug/ml
PHF-tau (human) [4] = molecular target: PHF-tau (human) (UniProt P10636); assay: competition ELISA on PHF-tau captured by polyclonal anti-tau; biotinylated AT120, unlabeled competitor AT8 at 10 ug/ml
PHF-tau (human) [5] = molecular target: PHF-tau (human) (UniProt P10636); assay: sandwich ELISA: AT120 coated, tau at 20 pg/ml spiked in tau-negative CSF, detection with biotinylated BT2 + HT7
[6] = molecular target: affinity-purified human normal tau (human) (UniProt P10636); assay: as above
PHF-tau (human) [7] = molecular target: PHF-tau (human) (UniProt P10636); assay: sandwich ELISA: AT120 coated, tau at 160 pg/ml spiked in tau-negative CSF, detection with biotinylated BT2 + HT7
[8] = molecular target: affinity-purified human normal tau (human) (UniProt P10636); assay: as above
PHF-tau (human) [9] = molecular target: PHF-tau (human) (UniProt P10636); assay: sandwich ELISA: AT120 coated, tau at 0 pg/ml (blank), detection with biotinylated BT2 + HT7
[10] = molecular target: affinity-purified human normal tau (human) (UniProt P10636); assay: as above
PHF-tau (human) [11] = molecular target: PHF-tau (human) (UniProt P10636); assay: sandwich ELISA: AT120 coated, tau at 80 pg/ml spiked in tau-negative CSF, detection with biotinylated BT2 + HT7
[12] = molecular target: affinity-purified human normal tau (human) (UniProt P10636); assay: as above
PHF-tau (human) [13] = molecular target: PHF-tau (human) (UniProt P10636); assay: sandwich ELISA: AT120 coated, tau at 10 pg/ml spiked in tau-negative CSF, detection with biotinylated BT2 + HT7
[14] = molecular target: affinity-purified human normal tau (human) (UniProt P10636); assay: as above
PHF-tau (human) [15] = molecular target: PHF-tau (human) (UniProt P10636); assay: sandwich ELISA: AT120 coated, tau at 40 pg/ml spiked in tau-negative CSF, detection with biotinylated BT2 + HT7
[16] = molecular target: affinity-purified human normal tau (human) (UniProt P10636); assay: as above
PHF-tau (human) [17] = molecular target: PHF-tau (human) (UniProt P10636); assay: competition ELISA on PHF-tau captured by polyclonal anti-tau; biotinylated BT2, unlabeled competitor BT2 at 10 ug/ml
PHF-tau (human) [18] = molecular target: PHF-tau (human) (UniProt P10636); assay: competition ELISA on PHF-tau captured by polyclonal anti-tau; biotinylated BT2, unlabeled competitor AT120 at 10 ug/ml

- Absorbance (PHF-tau (human) [1]): 0.372 absorbance
- Absorbance (PHF-tau (human) [2]): 0.001 absorbance
Substance: monoclonal antibody AT8

- Absorbance (PHF-tau (human) [3]): 0.001 absorbance
- Absorbance (PHF-tau (human) [4]): 0.476 absorbance
- absorbance (milliabsorbance units) (milliabsorbance units) (PHF-tau (human) [5]): 257
- absorbance (milliabsorbance units) (milliabsorbance units) [6]: 256
- absorbance (milliabsorbance units) (milliabsorbance units) (PHF-tau (human) [7]): 1680
- absorbance (milliabsorbance units) (milliabsorbance units) [8]: 1610
- absorbance (milliabsorbance units) (milliabsorbance units) (PHF-tau (human) [9]): 92
- absorbance (milliabsorbance units) (milliabsorbance units) [10]: 87
- absorbance (milliabsorbance units) (milliabsorbance units) (PHF-tau (human) [11]): 901
- absorbance (milliabsorbance units) (milliabsorbance units) [12]: 970
- absorbance (milliabsorbance units) (milliabsorbance units) (PHF-tau (human) [13]): 143
- absorbance (milliabsorbance units) (milliabsorbance units) [14]: 154
- absorbance (milliabsorbance units) (milliabsorbance units) (PHF-tau (human) [15]): 566
- absorbance (milliabsorbance units) (milliabsorbance units) [16]: 678
Substance: monoclonal antibody AT120

- Absorbance (PHF-tau (human) [17]): 0.054 absorbance
- Absorbance (PHF-tau (human) [18]): 0.543 absorbance
Substance: monoclonal antibody BT2
